# Test results reported in PMC4574047, “Biochemical Characterization of Putative Adenylate Dimethylallyltransferase and Cytokinin Dehydrogenase from Nostoc sp. PCC 7120” (PLoS ONE, 2015).
# T1: NoIPT1 (Nostoc sp. PCC 7120 = FACHB-418, UniProt A0ACD7S271)
# T1 construct: gene all0220; full gene in pET-28b(+) (NdeI/SalI), N-terminal polyhistidine tag kept; E. coli BL21(DE3) STAR
# T1 sequence (A0ACD7S271 1-244): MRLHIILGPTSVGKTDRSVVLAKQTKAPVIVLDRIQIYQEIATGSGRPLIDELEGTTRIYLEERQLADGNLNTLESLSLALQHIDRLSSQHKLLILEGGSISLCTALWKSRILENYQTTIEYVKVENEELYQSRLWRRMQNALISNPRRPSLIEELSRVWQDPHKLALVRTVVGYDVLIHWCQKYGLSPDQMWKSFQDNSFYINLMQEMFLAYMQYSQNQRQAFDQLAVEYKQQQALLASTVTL
# B1: NoIPT1 (Nostoc sp. PCC 7120 = FACHB-418) (protein)
# chain: T1 sequence (A0ACD7S271 1-244)
# notes: full gene in pET-28b(+) (NdeI/SalI), N-terminal polyhistidine tag kept; E. coli BL21(DE3) STAR
# Columns and labels:
# NoIPT1 = molecular target: T1, NoIPT1; test: HPLC-UV product determination; trans-zeatin-5'-monophosphate formed; format: biochemical; conditions: with AMP, 10 mM MgCl2, pH 7.5, 25°C
# purified protein [1] = substrate: CC(C)=CCOP(=O)(O)OP(=O)(O)O; test: purified protein; format: biochemical, Nostoc sp. PCC 7120 = FACHB-418; conditions: 20 μM AMP, 10 mM MgCl2, 100 mM Tris/HCl pH 7.5, 25°C
# purified protein [2] = substrate: Nc1ncnc2c1ncn2[C@@H]1O[C@H](COP(=O)(O)O)[C@@H](O)[C@H]1O; test: purified protein; format: biochemical, Nostoc sp. PCC 7120 = FACHB-418; conditions: 150 μM DMAPP, 10 mM MgCl2, 100 mM Tris/HCl pH 7.5, 25°C
Molecule,HPLC-UV product determination; trans-zeatin-5'-monophosphate formed (NoIPT1),Km (purified protein [1]) [µM],Km (purified protein [2]) [µM]
"C/C(=C\COP(=O)(O)OP(=O)(O)O)CO [HMBPP, (E)-4-hydroxy-3-methyl-but-2-enyl diphosphate]","NoIPT1 used a hydroxylated side chain precursor, HMBPP, to form trans-zeatin-5´-monophosphate in the reaction with AMP",,
B1,,27.05 ± 2.47,0.63 ± 0.18
